In one series the target is T1, EHD2 (Mus musculus, UniProt Q8BH64).
T1 construct: Mouse EHD2 full-length protein and all mutants were expressed as N-terminal His-fusions followed by a PreScission cleavage site; His (N, cleaved yes); made in house; host or cells: Escherichia coli BL21 DE3 Rosetta
T1 sequence (Q8BH64 1-543): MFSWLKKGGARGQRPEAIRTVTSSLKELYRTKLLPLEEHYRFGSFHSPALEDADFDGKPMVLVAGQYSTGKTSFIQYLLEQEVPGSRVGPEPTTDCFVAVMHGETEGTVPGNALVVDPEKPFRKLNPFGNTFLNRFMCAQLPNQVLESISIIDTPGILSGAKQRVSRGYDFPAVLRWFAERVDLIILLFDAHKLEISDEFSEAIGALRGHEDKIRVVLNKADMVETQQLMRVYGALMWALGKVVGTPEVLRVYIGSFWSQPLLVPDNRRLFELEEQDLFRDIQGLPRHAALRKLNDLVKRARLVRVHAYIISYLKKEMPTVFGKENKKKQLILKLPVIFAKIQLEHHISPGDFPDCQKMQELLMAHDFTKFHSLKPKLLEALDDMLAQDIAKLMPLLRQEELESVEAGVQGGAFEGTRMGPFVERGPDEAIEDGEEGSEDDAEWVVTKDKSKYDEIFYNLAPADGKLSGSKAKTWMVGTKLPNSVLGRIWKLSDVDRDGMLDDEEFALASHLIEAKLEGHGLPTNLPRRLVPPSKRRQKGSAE
The series can be described thus: Multiple turnover ATPase assay (nucleotide hydrolysis by HPLC) with or without Folch liposomes. The format is biochemical. The note with it: presence or absence of Folch liposomes. The procedure: (§1) Amino acid numbering corresponds to mouse EHD2. b, EHD2 binds to adenine nucleotides, as determined by ITC. For clarity, ΔΔH=ΔHn−ΔH1 is plotted. […] Images were acquired close to the basal cell surface. f, Nucleotide hydrolysis was measured by HPLC in the absence (empty symbols) or presence of Folch liposomes (filled symbols). Data represent mean and standard deviation for two (intrinisic reactions) or three (stimulated reactions) independent experiments.
ITC measurements were performed at 10° C. in 20 mM HEPES (pH 7.5), 300 mM NaCl, 2 mM MgCl2. Liposome binding assays were performed as described previously (www.endocytosis.org). Multiple turnover ATPase assays were performed in 20 mM HEPES (pH 7.5), 135 mM NaCl, 15 mM KCl, 1 mM MgCl2 at 30° C. with 10 μM EHD2 (or mutants) as enzyme and 100 μM ATP as substrate, in the absence or presence of 1 mg/ml Folch liposomes (Sigma-Aldrich).
Reactions were started by the addition of the protein to the final reaction mix and nucleotide hydrolysis was followed using standard HPLC measurement^27. Initial rates were determined by applying a linear fit to data points up to 40% nucleotide hydrolysis. For electron microscopic studies, 2.5 μM EHD2 in 20 mM HEPES (pH 7.5), 150 mM NaCl, 1 mM MgCl2 was incubated for 15 min at 25° C. in the presence of 1 mM nucleotide and 0.05 mg/ml (final concentration) of the indicated liposomes. Samples were spotted on carbon-coated copper grids (Canemco and Marivac) and negatively stained with 2% uranyl acetate.
We next monitored the effect of membrane-binding on the ATPase activity of. EHD2 under multiple-turnover conditions (10-fold excess of ATP over EHD2), in the presence and absence of Folch liposoines (FIG. 1f). The intrinsic/background ATPase activity is extremely slow (kobs=0.7 h^−1) but is stimulated 8-fold in the presence of Folch or PS liposomes (kobs=5.6 h^−1).

The test system of the next series is HeLa cells. In words: Over-expression of EGFP-tagged EHD2 and mutants in HeLa cells (confocal / live imaging). Type of series: cell-based. As to conditions: 24 h after transfection, fixed. The procedure: as §1
Nucleotide hydrolysis was measured as described in FIG. 1f. In vitro tubulation activity of PS liposomes was analysed as described in FIG. 1d. f, EGFP-tagged mutants were over-expressed in HeLa cells. […] For each construct, three independent experiments with ≈50 cells/experiments were analysed.
Ultracentrifugation. Sedimentation velocity experiments were performed in a Beckman Optima XLA ultracentrifuge, using an An-60Ti rotor. Centrifugation was at 50,000 rev×min and 5° C. at an EHD2 concentration of 15 μM, with scans as fast as possible (˜1.5 min intervals). The data were analysed using DCDT+ v.2^44,45, with the partial specific volume for the protein (from the amino acid composition) and solvent density and viscosity calculated using Sednterp^46. Selected scans (at equal, ˜15 min intervals), and of g(s20,w) (the amount of material sedimenting between s20,w and (s20,w+δs)) and also the residuals for fitting the data with DCDT+, were plotted with the program profit v.5.6.7 (Quantum soft, Switzerland). Cell biology. N-terminal EGFP-tagged EHD2 and all mutants were over-expressed in HeLa cells from the pEGFP-C3 vector (Clontech). HeLa cells were grown as per ECACC guidelines with 10% fetal bovine serum and transfected using Genejuice (Novagen) for transient protein expression. 24 h after transfection, cells were fixed for 10 min at 37° C. in 3% paraformaldehyde and mounted. All confocal images were taken sequentially using a BioRad Radiance system and LaserSharp software (Biorad). For real-time microscopy, transfected cells on glass-bottom Petri dishes (WillCo Wells BV, Amsterdam) were washed with 25 mM HEPES (pH 7.5), 125 mM NaCl, 5 mM KCl, 10 mM D-glucose, 1 mM MgCl2, 2 mM CaCl), and epifluorescence images were taken using an Olympus IX70 microscope (Southhall, UK) and Argon laser (Melles Griot, Carlsbad, Calif.) with a Princeton instruments (Trenton, N.J.) cooled I-PentaMAX camera with MetaMorph software (Universal imaging).
EHD2 wild-type was over-expressed in HeLa cells for 24 h and imaged by EPI-fluorescence for approximately 30 min.
EHD2 T94A was over-expressed in HeLa cells for 24 h and imaged by EPI-fluorescence for approximately 30 min. […] EHD2 I157Q was over-expressed in HeLa cells for 24 h and imaged by EPI-fluorescence for approximately 30 min.

The values that follow come from patent publication US20120214173A1, “Methods of Identifying Modulators of an Ehd Polypeptide” (priority 2007, published 2012).

“Also recorded” adds a separate entry of the source.

With `Nc1nc2c(ncn2[C@@H]2O[C@H](COP(=O)(O)OP(=O)(O)OP(=O)(O)O)[C@@H](O)[C@H]2O)c(=O)[nH]1` [GTP, reference compound], the “GTP hydrolysis by EHD2 (in words)” value at EHD2 is “not stimulated; also recorded: not hydrolysed”.

B1: EHD2 E91Q (protein)
chain: MFSWLKKGGARGQRPEAIRTVTSSLKELYRTKLLPLEEHYRFGSFHSPALEDADFDGKPMVLVAGQYSTGKTSFIQYLLEQEVPGSRVGPQPTTDCFVAVMHGETEGTVPGNALVVDPEKPFRKLNPFGNTFLNRFMCAQLPNQVLESISIIDTPGILSGAKQRVSRGYDFPAVLRWFAERVDLIILLFDAHKLEISDEFSEAIGALRGHEDKIRVVLNKADMVETQQLMRVYGALMWALGKVVGTPEVLRVYIGSFWSQPLLVPDNRRLFELEEQDLFRDIQGLPRHAALRKLNDLVKRARLVRVHAYIISYLKKEMPTVFGKENKKKQLILKLPVIFAKIQLEHHISPGDFPDCQKMQELLMAHDFTKFHSLKPKLLEALDDMLAQDIAKLMPLLRQEELESVEAGVQGGAFEGTRMGPFVERGPDEAIEDGEEGSEDDAEWVVTKDKSKYDEIFYNLAPADGKLSGSKAKTWMVGTKLPNSVLGRIWKLSDVDRDGMLDDEEFALASHLIEAKLEGHGLPTNLPRRLVPPSKRRQKGSAE
Take B1: the “assembly-stimulated ATP hydrolysis” value with Q8BH64 is reported as “all mutants showed reduced or completely abolished assembly-stimulated ATP hydrolysis”.

B2: K327D: EHD2 polybasic cluster mutant (protein, UniProt Q8BH64 1-543, looked up, variant K327D)
EH domain-containing protein 2: MFSWLKKGGARGQRPEAIRTVTSSLKELYRTKLLPLEEHYRFGSFHSPALEDADFDGKPMVLVAGQYSTGKTSFIQYLLEQEVPGSRVGPEPTTDCFVAVMHGETEGTVPGNALVVDPEKPFRKLNPFGNTFLNRFMCAQLPNQVLESISIIDTPGILSGAKQRVSRGYDFPAVLRWFAERVDLIILLFDAHKLEISDEFSEAIGALRGHEDKIRVVLNKADMVETQQLMRVYGALMWALGKVVGTPEVLRVYIGSFWSQPLLVPDNRRLFELEEQDLFRDIQGLPRHAALRKLNDLVKRARLVRVHAYIISYLKKEMPTVFGKENDKKQLILKLPVIFAKIQLEHHISPGDFPDCQKMQELLMAHDFTKFHSLKPKLLEALDDMLAQDIAKLMPLLRQEELESVEAGVQGGAFEGTRMGPFVERGPDEAIEDGEEGSEDDAEWVVTKDKSKYDEIFYNLAPADGKLSGSKAKTWMVGTKLPNSVLGRIWKLSDVDRDGMLDDEEFALASHLIEAKLEGHGLPTNLPRRLVPPSKRRQKGSAE
For B2, the “distribution of EGFP-tagged protein over-expressed in HeLa cells” value with HeLa cells is listed as “completely cytoplasmic distribution”.

B3: EHD2 K193D (protein)
chain: MFSWLKKGGARGQRPEAIRTVTSSLKELYRTKLLPLEEHYRFGSFHSPALEDADFDGKPMVLVAGQYSTGKTSFIQYLLEQEVPGSRVGPEPTTDCFVAVMHGETEGTVPGNALVVDPEKPFRKLNPFGNTFLNRFMCAQLPNQVLESISIIDTPGILSGAKQRVSRGYDFPAVLRWFAERVDLIILLFDAHDLEISDEFSEAIGALRGHEDKIRVVLNKADMVETQQLMRVYGALMWALGKVVGTPEVLRVYIGSFWSQPLLVPDNRRLFELEEQDLFRDIQGLPRHAALRKLNDLVKRARLVRVHAYIISYLKKEMPTVFGKENKKKQLILKLPVIFAKIQLEHHISPGDFPDCQKMQELLMAHDFTKFHSLKPKLLEALDDMLAQDIAKLMPLLRQEELESVEAGVQGGAFEGTRMGPFVERGPDEAIEDGEEGSEDDAEWVVTKDKSKYDEIFYNLAPADGKLSGSKAKTWMVGTKLPNSVLGRIWKLSDVDRDGMLDDEEFALASHLIEAKLEGHGLPTNLPRRLVPPSKRRQKGSAE
Take B3: the “assembly-stimulated ATP hydrolysis” value with Q8BH64 is reported as “all mutants showed reduced or completely abolished assembly-stimulated ATP hydrolysis”.

B4: K324D: EHD2 polybasic cluster mutant (protein, UniProt Q8BH64 1-543, looked up, variant K324D)
EH domain-containing protein 2: MFSWLKKGGARGQRPEAIRTVTSSLKELYRTKLLPLEEHYRFGSFHSPALEDADFDGKPMVLVAGQYSTGKTSFIQYLLEQEVPGSRVGPEPTTDCFVAVMHGETEGTVPGNALVVDPEKPFRKLNPFGNTFLNRFMCAQLPNQVLESISIIDTPGILSGAKQRVSRGYDFPAVLRWFAERVDLIILLFDAHKLEISDEFSEAIGALRGHEDKIRVVLNKADMVETQQLMRVYGALMWALGKVVGTPEVLRVYIGSFWSQPLLVPDNRRLFELEEQDLFRDIQGLPRHAALRKLNDLVKRARLVRVHAYIISYLKKEMPTVFGDENKKKQLILKLPVIFAKIQLEHHISPGDFPDCQKMQELLMAHDFTKFHSLKPKLLEALDDMLAQDIAKLMPLLRQEELESVEAGVQGGAFEGTRMGPFVERGPDEAIEDGEEGSEDDAEWVVTKDKSKYDEIFYNLAPADGKLSGSKAKTWMVGTKLPNSVLGRIWKLSDVDRDGMLDDEEFALASHLIEAKLEGHGLPTNLPRRLVPPSKRRQKGSAE
With B4, in the series on HeLa cells, the “distribution of EGFP-tagged protein over-expressed in HeLa cells” value is “completely cytoplasmic distribution”.

B5: K329D: EHD2 polybasic cluster mutant (protein, UniProt Q8BH64 1-543, looked up, variant K329D)
EH domain-containing protein 2: MFSWLKKGGARGQRPEAIRTVTSSLKELYRTKLLPLEEHYRFGSFHSPALEDADFDGKPMVLVAGQYSTGKTSFIQYLLEQEVPGSRVGPEPTTDCFVAVMHGETEGTVPGNALVVDPEKPFRKLNPFGNTFLNRFMCAQLPNQVLESISIIDTPGILSGAKQRVSRGYDFPAVLRWFAERVDLIILLFDAHKLEISDEFSEAIGALRGHEDKIRVVLNKADMVETQQLMRVYGALMWALGKVVGTPEVLRVYIGSFWSQPLLVPDNRRLFELEEQDLFRDIQGLPRHAALRKLNDLVKRARLVRVHAYIISYLKKEMPTVFGKENKKDQLILKLPVIFAKIQLEHHISPGDFPDCQKMQELLMAHDFTKFHSLKPKLLEALDDMLAQDIAKLMPLLRQEELESVEAGVQGGAFEGTRMGPFVERGPDEAIEDGEEGSEDDAEWVVTKDKSKYDEIFYNLAPADGKLSGSKAKTWMVGTKLPNSVLGRIWKLSDVDRDGMLDDEEFALASHLIEAKLEGHGLPTNLPRRLVPPSKRRQKGSAE
Take B5: the “distribution of EGFP-tagged protein over-expressed in HeLa cells” value in the series on HeLa cells is “completely cytoplasmic distribution”.
